Columns and labels:
[1] = tested on: T1, nephrin (co-expressed in HEK cells)
T1 sequence: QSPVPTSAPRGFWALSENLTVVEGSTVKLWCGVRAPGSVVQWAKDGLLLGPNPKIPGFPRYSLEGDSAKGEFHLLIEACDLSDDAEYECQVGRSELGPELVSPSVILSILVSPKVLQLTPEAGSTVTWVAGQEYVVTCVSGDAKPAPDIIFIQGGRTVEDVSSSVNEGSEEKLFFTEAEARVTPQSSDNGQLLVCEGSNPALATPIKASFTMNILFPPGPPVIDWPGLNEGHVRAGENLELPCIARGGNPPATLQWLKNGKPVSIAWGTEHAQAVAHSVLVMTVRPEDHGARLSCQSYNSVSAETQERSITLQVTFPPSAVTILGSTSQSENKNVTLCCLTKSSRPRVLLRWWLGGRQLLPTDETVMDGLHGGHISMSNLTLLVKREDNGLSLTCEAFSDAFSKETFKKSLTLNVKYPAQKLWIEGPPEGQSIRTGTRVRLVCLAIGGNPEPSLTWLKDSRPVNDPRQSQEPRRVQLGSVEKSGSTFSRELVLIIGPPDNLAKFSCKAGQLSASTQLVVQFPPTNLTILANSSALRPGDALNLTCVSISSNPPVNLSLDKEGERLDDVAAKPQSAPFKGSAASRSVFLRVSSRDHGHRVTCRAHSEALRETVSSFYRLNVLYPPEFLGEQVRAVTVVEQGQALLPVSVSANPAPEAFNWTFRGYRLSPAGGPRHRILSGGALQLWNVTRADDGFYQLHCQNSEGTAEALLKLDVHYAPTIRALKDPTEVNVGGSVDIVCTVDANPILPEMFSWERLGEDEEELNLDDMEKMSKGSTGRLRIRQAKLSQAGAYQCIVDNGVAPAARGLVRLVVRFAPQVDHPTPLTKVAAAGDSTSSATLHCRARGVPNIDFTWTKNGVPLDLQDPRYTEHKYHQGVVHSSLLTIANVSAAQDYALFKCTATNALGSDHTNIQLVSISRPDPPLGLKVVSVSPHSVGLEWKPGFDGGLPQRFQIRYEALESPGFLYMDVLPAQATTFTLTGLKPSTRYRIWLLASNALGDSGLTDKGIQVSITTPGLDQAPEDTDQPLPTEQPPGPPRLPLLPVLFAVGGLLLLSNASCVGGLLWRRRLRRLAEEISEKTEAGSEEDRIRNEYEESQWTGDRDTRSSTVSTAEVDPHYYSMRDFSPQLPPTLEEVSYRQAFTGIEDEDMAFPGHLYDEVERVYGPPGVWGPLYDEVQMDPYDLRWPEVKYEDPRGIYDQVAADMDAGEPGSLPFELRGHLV

[2] = tested on: C-mip protein (c-maf inducing protein), human, full-length
C-mip protein (c-maf inducing protein), human, full-length, sequence (chain, as listed by the source): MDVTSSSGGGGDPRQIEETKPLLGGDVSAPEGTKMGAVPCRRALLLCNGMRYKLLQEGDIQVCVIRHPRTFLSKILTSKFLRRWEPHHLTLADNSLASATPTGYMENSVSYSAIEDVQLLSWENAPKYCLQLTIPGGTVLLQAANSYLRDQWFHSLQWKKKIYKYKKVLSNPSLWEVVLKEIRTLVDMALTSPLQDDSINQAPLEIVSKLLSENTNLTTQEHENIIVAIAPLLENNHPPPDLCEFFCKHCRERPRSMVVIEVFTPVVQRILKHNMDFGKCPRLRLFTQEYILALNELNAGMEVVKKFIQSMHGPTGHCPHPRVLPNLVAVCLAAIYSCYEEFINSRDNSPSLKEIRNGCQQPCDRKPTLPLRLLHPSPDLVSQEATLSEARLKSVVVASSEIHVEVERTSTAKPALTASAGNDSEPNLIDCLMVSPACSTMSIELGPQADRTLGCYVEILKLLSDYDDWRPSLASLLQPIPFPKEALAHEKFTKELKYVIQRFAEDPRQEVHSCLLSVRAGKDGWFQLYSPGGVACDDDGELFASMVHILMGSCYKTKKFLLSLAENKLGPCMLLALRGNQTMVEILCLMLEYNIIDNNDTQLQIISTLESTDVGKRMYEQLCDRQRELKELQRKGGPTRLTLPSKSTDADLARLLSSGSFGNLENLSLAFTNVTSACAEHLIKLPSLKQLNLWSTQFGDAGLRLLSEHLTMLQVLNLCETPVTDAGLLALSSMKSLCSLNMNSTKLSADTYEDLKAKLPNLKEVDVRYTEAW

For “Fyn (expressed from Fyn plasmid in HEK 293 cells)”, the “phosphorylation of nephrin at tyrosine residue Y1208” value [1] was “Co-expression of nephrin and Fyn induced phosphorylation of nephrin at tyrosine residue Y1208” and the “phosphorylation of nephrin by Fyn at Y1208” value [2] was “co-expression of c-mip reduced the phosphorylation of nephrin by Fyn at this tyrosine residue”.

Source: patent US20120083519
